Data reported in US20120271039, “METHOD FOR PURIFYING ACTIVE GLA-DOMAIN COAGULATION PROTEINS” (LFB BIOTECHNOLOGIES, published 2012).

Columns and labels:
[1] = biological target: T1, Coagulation Factor IX (recombinant) (Homo sapiens, UniProt P00740 P00740:47-461); assay: SPR; highest affinity of the 30 core aptamers; FIX immobilized; 50 mM Tris, 10 mM CaCl2, 4 mM MgCl2, pH 7.5; conditions: tags: BeneFIX (nonacog alfa, Wyeth); correctly gamma-carboxylated
Method: (§1) Each sample was injected sequentially onto the same chip (solid support) containing the immobilized human recombinant FIX. Controls are obtained by injecting blanks containing only run buffer. All the injections were carried out with a flow rate of 30 μl/min for 60 sec; after the injection, run buffer was injected onto the chip at an identical flow rate for 120 sec.
(§2) Elution buffer (10 mM EDTA) was then injected for 60 sec with a flow rate of 30 μl/min to uncouple the aptamer from the immobilized human FIX.
(§3) The chip makes it possible to observe in real time the formation and the disruption of interactions between the immobilized human recombinant FIX and each of the aptamers, having the sequences SEQ ID Nos. 3 and 6 to 35, tested, through surface plasmon resonance (SPR). Binding to the immobilized recombinant human FIX generates an increase in signal expressed in resonance units (RU) recorded by the apparatus (FIG. 6). These analyses are carried out with the Biacore T100 SPR apparatus (GE). The modeling of the recorded interactions is carried out by means of the Biaevaluation software (GE).

[2] = biological target: T1, Coagulation Factor IX (recombinant); assay: SPR; FIX immobilized; 50 mM Tris, 10 mM CaCl2, 4 mM MgCl2, pH 7.5; conditions: tags: BeneFIX (nonacog alfa, Wyeth); correctly gamma-carboxylated
Method: as §1, §2, §3

[3] = biological target: Coagulation Factor VII (plasma) (Homo sapiens, UniProt P08709 P08709:61-466); assay: affinity chromatography; Ca/Mg buffer, EDTA elution; conditions: tags: plasma FVII (98-99% pure; ACSET, LFB, in column tests); label: biotin
Chain of Coagulation Factor VII (plasma) (P08709 61-466, one chain of several): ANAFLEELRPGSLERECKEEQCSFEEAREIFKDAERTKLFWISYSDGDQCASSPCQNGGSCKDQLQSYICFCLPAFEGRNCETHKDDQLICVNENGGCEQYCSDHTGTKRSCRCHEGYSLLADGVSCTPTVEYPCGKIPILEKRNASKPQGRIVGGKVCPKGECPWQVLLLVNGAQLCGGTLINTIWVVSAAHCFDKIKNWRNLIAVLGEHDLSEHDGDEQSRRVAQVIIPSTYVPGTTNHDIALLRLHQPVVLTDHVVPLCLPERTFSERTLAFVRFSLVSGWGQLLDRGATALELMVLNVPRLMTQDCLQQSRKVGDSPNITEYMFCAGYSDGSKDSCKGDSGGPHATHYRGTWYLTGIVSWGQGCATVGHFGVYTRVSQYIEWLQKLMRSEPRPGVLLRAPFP
Method: The FVII is eluted with a 20 mM Tris-HCl+10 mM EDTA buffer at pH 7.5. The elution peak is collected according to the OD profile.
In FIG. 15, the injection (1) of human plasma […] concentrate is followed rapidly by the elimination peak (2) of the fraction not retained on the affinity support. The affinity support continues to saturate with the coagulation protein of interest: complexes between (i) the anti-GLA nucleic aptamers of the affinity support and (ii) the human plasma FVII molecules initially contained in the composition to be purified were formed. After running the composition to be purified, a step of washing the column with the previously specified washing buffer is carried out. Then, the elution step is carried out by injecting the elution buffer solution comprising a final concentration of 10 mM of EDTA.

T1 sequence (P00740 47-461, one chain of several): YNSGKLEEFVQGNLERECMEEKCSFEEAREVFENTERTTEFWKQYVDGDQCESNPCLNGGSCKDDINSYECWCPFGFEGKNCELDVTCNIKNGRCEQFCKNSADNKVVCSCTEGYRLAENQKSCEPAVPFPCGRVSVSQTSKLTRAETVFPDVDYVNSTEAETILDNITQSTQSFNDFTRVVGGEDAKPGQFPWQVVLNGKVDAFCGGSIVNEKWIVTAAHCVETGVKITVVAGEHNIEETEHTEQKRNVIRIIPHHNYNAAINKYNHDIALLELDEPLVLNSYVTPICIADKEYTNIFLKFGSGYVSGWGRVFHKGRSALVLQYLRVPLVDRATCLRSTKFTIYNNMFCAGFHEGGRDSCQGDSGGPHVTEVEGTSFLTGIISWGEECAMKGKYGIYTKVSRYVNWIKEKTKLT

CGCACATGACTTGAAGTAAAACGCGAATTACAGACCAAACCCG (ssDNA) [Mapt-1.2-CS]
binding result [1]: binds

CGCACATGACTTGAAGTTAAACGCGAATTACAAACCCAGCCCCC (ssDNA) [Mapt-1 core sequence (Mapt-1-CS)]
binding result [2]: binds

CCGCACACCACGCGCATGACCCCGCGCACACGACTTGAAGTAGC (ssDNA) [Mapt-2-CS]
binding result [3]: binds
